Laboratory results from patent publication US20240409645A1 (DUALYX, published 2024).
Substitutions are numbered along the chain they refer to. One block for each binder: values may come before it.

Key:
[1] = biological target: T1, human IL-2Rγ (common cytokine receptor γ-chain) (human, UniProt P31785 23-262, limits assumed); experiment: PE binding ELISA, periplasmic extract on coated protein
T1 construct: Recombinant protein coated on the plate or immobilised on a CM5 chip; also called hu IL-2R; CD132
T1 sequence: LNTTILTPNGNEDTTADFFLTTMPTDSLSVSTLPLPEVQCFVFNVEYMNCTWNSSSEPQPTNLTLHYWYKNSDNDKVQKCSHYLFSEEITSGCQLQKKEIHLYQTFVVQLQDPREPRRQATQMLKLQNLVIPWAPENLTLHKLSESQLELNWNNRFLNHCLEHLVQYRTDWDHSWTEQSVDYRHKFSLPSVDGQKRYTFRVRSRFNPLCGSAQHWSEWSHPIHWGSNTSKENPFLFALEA
Method in brief: (§1)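 Direct-coat ELISA: receptor protein o/n 4° C → 4% Marvel/PBS block 1 h → P.E. 1:5 in 1% Marvel/PBS, 1 h → OD450 vs neg. controls.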

mouse IL-2Rγ [2] = biological target: T2, mouse IL-2Rγ (mouse, UniProt P34902 23-263); experiment: as above
T2 construct: also called mo IL-2R
T2 sequence (looked up): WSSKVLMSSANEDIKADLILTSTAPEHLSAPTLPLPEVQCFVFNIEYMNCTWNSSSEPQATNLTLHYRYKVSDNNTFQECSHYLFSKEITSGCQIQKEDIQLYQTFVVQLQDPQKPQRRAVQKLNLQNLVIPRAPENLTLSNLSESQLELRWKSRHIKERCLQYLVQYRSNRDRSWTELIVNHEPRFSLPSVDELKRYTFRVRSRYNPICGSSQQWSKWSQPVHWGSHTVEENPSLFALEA
Method in brief: as §1

[3] = biological target: T1, human IL-2Rγ (common cytokine receptor …); experiment: SPR off-rate ranking, periplasmic extract on immobilised protein
Method in brief: (§2)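 Dissociation rates of nanobody (VHH) periplasmic extracts were measured across a 120s window on an amine-coupled carboxymethyl dextran surface bearing about 2500 RUs of receptor; injection flow 30 uL/min.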

mouse IL-2Rγ [4] = biological target: T2, mouse IL-2Rγ; experiment: as above
Method in brief: as §2

OD (PE binding ELISA) [1]: 1.31 OD450 nm | OD (PE binding ELISA) (mouse IL-2Rγ [2]): 0.173 OD450 nm | koff [3]: 0.00235 s⁻¹ | koff (mouse IL-2Rγ [4]): 0.0149 s⁻¹
B1: 38-MP07A11 (VHH)
VHH: QVQLVESGGGLVQAGGSLRLSCAASGRSLSRDAMGWFRQAPGKEREFVAVMSWGGDTFYTDSVEGRFTFSRDNAKNAVYLEMNDLQPEDTAVYYCAAAPTSFATTAYSSSNSYSYWGRGTQVTVSS
notes: VHH in periplasmic extract; also called FJ1427_P035MP07A11; clone nr

OD (PE binding ELISA) (mouse IL-2Rγ [2]): 0.495 OD450 nm | koff (mouse IL-2Rγ [4]): 0.283 s⁻¹
B2: 31-MP04E03 (VHH)
VHH: QVQLVESGGGLVQAGGSLRLSCTGYGGAFTGYALGWFRQAPGKEREFVARINWSGSFTYYASSVKGRFTISRDNAKNTMYLQMNNLKPEDTAVYYCAADNPSTLATDYDNWGQGTQVTVSS
notes: VHH in periplasmic extract; also called FJ1427_P035MP04E03; clone nr

OD (PE binding ELISA) [1]: 1.02 OD450 nm | OD (PE binding ELISA) (mouse IL-2Rγ [2]): 0.066 OD450 nm | koff [3]: 0.00182 s⁻¹ | koff (mouse IL-2Rγ [4]): 0.113 s⁻¹
B3: FJ1427_P035MP04D01 (VHH)
VHH: QVQLVESGGGLVQAGGSLRLSCAASGRTLSRYAMGWFRQAPGKEREFVTANSWGGDTYYADSVQGRFTFSRDNAKNTVYLQMNSLQPEDTAVYYCAAAPTSFATTAYSSSNSYAYWGQGTQVTVSS
notes: VHH in periplasmic extract; also called clone nr

OD (PE binding ELISA) [1]: 1.08 OD450 nm | OD (PE binding ELISA) (mouse IL-2Rγ [2]): 0.067 OD450 nm | koff [3]: 0.00266 s⁻¹ | koff (mouse IL-2Rγ [4]): 0.109 s⁻¹
B4: FJ1427_P035MP04E01 (VHH)
VHH: B3 VHH
notes: as for B3

OD (PE binding ELISA) [1]: 0.98 OD450 nm | OD (PE binding ELISA) (mouse IL-2Rγ [2]): 0.066 OD450 nm | koff [3]: 0.00148 s⁻¹ | koff (mouse IL-2Rγ [4]): 0.114 s⁻¹
B5: FJ1427_P035MP04G02 (VHH)
VHH: B3 VHH
notes: as for B3

OD (PE binding ELISA) [1]: 1.41 OD450 nm | OD (PE binding ELISA) (mouse IL-2Rγ [2]): 0.077 OD450 nm | koff [3]: 0.00298 s⁻¹ | koff (mouse IL-2Rγ [4]): 0.116 s⁻¹
B6: FJ1427_P035MP04F06 (VHH)
VHH: B3 VHH
notes: as for B3

OD (PE binding ELISA) [1]: 1.45 OD450 nm | OD (PE binding ELISA) (mouse IL-2Rγ [2]): 0.085 OD450 nm | koff [3]: 0.00306 s⁻¹ | koff (mouse IL-2Rγ [4]): 0.126 s⁻¹
B7: FJ1427_P035MP04A02 (VHH)
VHH: B3 VHH
notes: as for B3

OD (PE binding ELISA) [1]: 1 OD450 nm | OD (PE binding ELISA) (mouse IL-2Rγ [2]): 0.07 OD450 nm | koff [3]: 0.00196 s⁻¹ | koff (mouse IL-2Rγ [4]): 0.126 s⁻¹
B8: FJ1427_P035MP04C02 (VHH)
VHH: B3 VHH
notes: as for B3

OD (PE binding ELISA) [1]: 1.57 OD450 nm | OD (PE binding ELISA) (mouse IL-2Rγ [2]): 0.08 OD450 nm | koff [3]: 0.00273 s⁻¹ | koff (mouse IL-2Rγ [4]): 0.108 s⁻¹
B9: FJ1427_P035MP04H05 (VHH)
VHH: B3 VHH
notes: as for B3

OD (PE binding ELISA) [1]: 1.66 OD450 nm | OD (PE binding ELISA) (mouse IL-2Rγ [2]): 0.085 OD450 nm | koff [3]: 0.00268 s⁻¹ | koff (mouse IL-2Rγ [4]): 0.11 s⁻¹
B10: FJ1427_P035MP04F01 (VHH)
VHH: B3 VHH
notes: as for B3

OD (PE binding ELISA) [1]: 1.23 OD450 nm | OD (PE binding ELISA) (mouse IL-2Rγ [2]): 0.078 OD450 nm | koff [3]: 0.00197 s⁻¹ | koff (mouse IL-2Rγ [4]): 0.122 s⁻¹
B11: FJ1427_P035MP04E08 (VHH)
VHH: B3 VHH
notes: as for B3

OD (PE binding ELISA) [1]: 1.67 OD450 nm | OD (PE binding ELISA) (mouse IL-2Rγ [2]): 0.109 OD450 nm | koff [3]: 0.00206 s⁻¹ | koff (mouse IL-2Rγ [4]): 0.104 s⁻¹
B12: FJ1427_P035MP04H01 (VHH)
VHH: B3 VHH
notes: as for B3

OD (PE binding ELISA) [1]: 1.54 OD450 nm | OD (PE binding ELISA) (mouse IL-2Rγ [2]): 0.083 OD450 nm | koff [3]: 0.00146 s⁻¹ | koff (mouse IL-2Rγ [4]): 0.122 s⁻¹
B13: FJ1427_P035MP04B09 (VHH)
VHH: B3 VHH
notes: as for B3

OD (PE binding ELISA) [1]: 1.25 OD450 nm | OD (PE binding ELISA) (mouse IL-2Rγ [2]): 0.442 OD450 nm | koff [3]: 0.001 s⁻¹ | koff (mouse IL-2Rγ [4]): 0.0297 s⁻¹
B14: FJ1427_P035MP04H03 (VHH)
VHH: B3 VHH with V2L, T49A, N51D, Y58F, Q64E, T77A, V78A, V92T, A97G, A114R
notes: as for B3

OD (PE binding ELISA) [1]: 1.81 OD450 nm | OD (PE binding ELISA) (mouse IL-2Rγ [2]): 1.49 OD450 nm | koff [3]: 0.00126 s⁻¹ | koff (mouse IL-2Rγ [4]): 0.007 s⁻¹
B15: 37-MP07F09 (VHH)
VHH: B3 VHH with F47Y, T49A, A50I, N51D, Y58F, Q64E, T77E, A97G, A114R
notes: VHH in periplasmic extract; also called FJ1427_P035MP07F09; clone nr
